Common to all, as to assay: purified protein
Holding throughout (assay type): biochemical, Homo sapiens

Substrate in series [1]: O=C(O)[C@@H]1CSCN1
As to conditions: 1 mM NADP+, pH 7.5, Tris-HCl, L-T4C 0-25 mM.

Substrate in series [2]: NC(=O)c1ccc[n+]([C@@H]2O[C@H](COP(=O)(O)OP(=O)(O)OC[C@H]3O[C@@H](n4cnc5c(N)ncnc54)[C@H](OP(=O)(O)O)[C@@H]3O)[C@@H](O)[C@H]2O)c1
To be noted: 60 mM L-T4C, pH 7.5, Tris-HCl, varied: cofactor.

Substrate in series [3]: NC(=O)c1ccc[n+]([C@@H]2O[C@H](COP(=O)(O)OP(=O)(O)OC[C@H]3O[C@@H](n4cnc5c(N)ncnc54)[C@H](O)[C@@H]3O)[C@@H](O)[C@H]2O)c1
To be noted: 60 mM L-T4C, pH 7.5, Tris-HCl, varied: cofactor.

These results are taken from paper PMC8876999.

Broadly, the Km is the substrate concentration at which the rate is half of its maximum. Broadly, the kcat is the maximal rate divided by the concentration of active sites. As usually defined, the kcat/Km is the second-order rate constant that governs catalysis at low substrate concentration.

B1: PYCR2 (Homo sapiens) (protein)
chain: MSVGFIGAGQLAYALARGFTAAGILSAHKIIASSPEMNLPTVSALRKMGVNLTRSNKETVKHSDVLFLAVKPHIIPFILDEIGADVQARHIVVSCAAGVTISSVEKKLMAFQPAPKVIRCMTNTPVVVQEGATVYATGTHALVEDGQLLEQLMSSVGFCTEVEEDLIDAVTGLSGSGPAYAFMALDALADGGVKMGLPRRLAIQLGAQALLGAAKMLLDSEQHPCQLKDNVCSPGGATIHALHFLESGGFRSLLINAVEASCIRTRELQSMADQEKISPAALKKTLLDRVKLESPTVSTLTPSSPGKLLTRSLALGGKKD
Consider B1, for which the Km was 6800 ± 900 µM in series [1], 530 ± 120 µM in series [2] and 660 ± 110 µM in series [3]. The kcat in series [1] was 0.92 ± 0.04 s⁻¹; in series [2], 0.46 ± 0.02 s⁻¹; in series [3], 0.36 ± 0.13 s⁻¹. In addition, the kcat/Km was 136 ± 19 M⁻¹ s⁻¹ in series [1], 857 ± 224 M⁻¹ s⁻¹ in series [2] and 551 ± 223 M⁻¹ s⁻¹ in series [3].
